To fix the notation:
B1: Protein S100-G, residues 1 to 79; numbered along this chain, P02633 (parent)
chain: MSAKKSPEELKGIFEKYAAKEGDPNQLSKEELKLLLQTEFPSLLKGPSTLDELFEELDKNGDGEVSFEEFQVLVKKISQ

± gives the uncertainty stated by the source.

Variants of B1 are the subject of this data set. The experiment in a line: abundance fitness (aPCA) (normalised: wild type 0, dead -1); higher = more abundant; growth selection in yeast, the domain comes from the species named. Conditions: Bos taurus.
As for MSAKKSPEELKGIFEKYANKEGDPNQLSKEELKLLLQTEFPSLLKGPSTLDELFEELDKNGDGEVSFEEFQVLVKKISQ [A19N], the abundance fitness was -0.017 ± 0.081. The value for MSAKKSPEELKGIFEKYAMKEGDPNQLSKEELKLLLQTEFPSLLKGPSTLDELFEELDKNGDGEVSFEEFQVLVKKISQ [A19M] was -0.015 ± 0.086; that for MSAKKSPEELKGIFEKYAAWEGDPNQLSKEELKLLLQTEFPSLLKGPSTLDELFEELDKNGDGEVSFEEFQVLVKKISQ [K20W] was -0.181 ± 0.084. The value for MSAKKSPEELKGIFEKYAALEGDPNQLSKEELKLLLQTEFPSLLKGPSTLDELFEELDKNGDGEVSFEEFQVLVKKISQ [K20L] was -0.067 ± 0.064; that for MSAKKSPEELKGIFEKYAAMEGDPNQLSKEELKLLLQTEFPSLLKGPSTLDELFEELDKNGDGEVSFEEFQVLVKKISQ [K20M] was 0.053 ± 0.081. Next, MSAKKSPEELKGIFEKYAAGEGDPNQLSKEELKLLLQTEFPSLLKGPSTLDELFEELDKNGDGEVSFEEFQVLVKKISQ [K20G]: -0.01 ± 0.076; MSAKKSPEELKGIFEKYAANEGDPNQLSKEELKLLLQTEFPSLLKGPSTLDELFEELDKNGDGEVSFEEFQVLVKKISQ [K20N]: -0.012 ± 0.079.

Turning to MSAKKSPEELKGIFEKYAAREGDPNQLSKEELKLLLQTEFPSLLKGPSTLDELFEELDKNGDGEVSFEEFQVLVKKISQ [K20R], the abundance fitness stood at 0.012 ± 0.066. The value for MSAKKSPEELKGIFEKYAAAEGDPNQLSKEELKLLLQTEFPSLLKGPSTLDELFEELDKNGDGEVSFEEFQVLVKKISQ [K20A] was -0.119 ± 0.071. Turning to MSAKKSPEELKGIFEKYAACEGDPNQLSKEELKLLLQTEFPSLLKGPSTLDELFEELDKNGDGEVSFEEFQVLVKKISQ [K20C], the abundance fitness is -0.263 ± 0.087. Next, MSAKKSPEELKGIFEKYAAQEGDPNQLSKEELKLLLQTEFPSLLKGPSTLDELFEELDKNGDGEVSFEEFQVLVKKISQ [K20Q]: 0.04 ± 0.09; MSAKKSPEELKGIFEKYAAFEGDPNQLSKEELKLLLQTEFPSLLKGPSTLDELFEELDKNGDGEVSFEEFQVLVKKISQ [K20F]: -0.159 ± 0.083; MSAKKSPEELKGIFEKYAASEGDPNQLSKEELKLLLQTEFPSLLKGPSTLDELFEELDKNGDGEVSFEEFQVLVKKISQ [K20S]: -0.088 ± 0.065. The value for MSAKKSPEELKGIFEKYAADEGDPNQLSKEELKLLLQTEFPSLLKGPSTLDELFEELDKNGDGEVSFEEFQVLVKKISQ [K20D] was -0.05 ± 0.1. Next, MSAKKSPEELKGIFEKYAAVEGDPNQLSKEELKLLLQTEFPSLLKGPSTLDELFEELDKNGDGEVSFEEFQVLVKKISQ [K20V]: -0.077 ± 0.075.

Turning to MSAKKSPEELKGIFEKYAAIEGDPNQLSKEELKLLLQTEFPSLLKGPSTLDELFEELDKNGDGEVSFEEFQVLVKKISQ [K20I], the abundance fitness was -0.098 ± 0.085.

On to MSAKKSPEELKGIFEKYAAEEGDPNQLSKEELKLLLQTEFPSLLKGPSTLDELFEELDKNGDGEVSFEEFQVLVKKISQ [K20E], for which the abundance fitness is -0.119 ± 0.093. Consider MSAKKSPEELKGIFEKNAAKEGDPNQLSKEELKLLLQTEFPSLLKGPSTLDELFEELDKNGDGEVSFEEFQVLVKKISQ [Y17N], for which the abundance fitness was -0.433 ± 0.079. Next, MSAKKSPEELKGIFEKKAAKEGDPNQLSKEELKLLLQTEFPSLLKGPSTLDELFEELDKNGDGEVSFEEFQVLVKKISQ [Y17K]: -0.519 ± 0.08; MSAKKSPEELKGIFEKAAAKEGDPNQLSKEELKLLLQTEFPSLLKGPSTLDELFEELDKNGDGEVSFEEFQVLVKKISQ [Y17A]: -0.129 ± 0.074; MSAKKSPEELKGIFEKRAAKEGDPNQLSKEELKLLLQTEFPSLLKGPSTLDELFEELDKNGDGEVSFEEFQVLVKKISQ [Y17R]: -0.429 ± 0.066. The value for MSAKKSPEELKGIFEKHAAKEGDPNQLSKEELKLLLQTEFPSLLKGPSTLDELFEELDKNGDGEVSFEEFQVLVKKISQ [Y17H] was -0.067 ± 0.076.

Take MSAKKSPEELKGIFEKGAAKEGDPNQLSKEELKLLLQTEFPSLLKGPSTLDELFEELDKNGDGEVSFEEFQVLVKKISQ [Y17G]: the abundance fitness is -0.521 ± 0.073. As for MSAKKSPEELKGIFEKSAAKEGDPNQLSKEELKLLLQTEFPSLLKGPSTLDELFEELDKNGDGEVSFEEFQVLVKKISQ [Y17S], the abundance fitness was -0.45 ± 0.063.

Regarding MSAKKSPEELKGIFEKMAAKEGDPNQLSKEELKLLLQTEFPSLLKGPSTLDELFEELDKNGDGEVSFEEFQVLVKKISQ [Y17M], the abundance fitness is -0.168 ± 0.083. On to MSAKKSPEELKGIFEKDAAKEGDPNQLSKEELKLLLQTEFPSLLKGPSTLDELFEELDKNGDGEVSFEEFQVLVKKISQ [Y17D], for which the abundance fitness was -1.1 ± 0.088. As for MSAKKSPEELKGIFEKLAAKEGDPNQLSKEELKLLLQTEFPSLLKGPSTLDELFEELDKNGDGEVSFEEFQVLVKKISQ [Y17L], the abundance fitness was -0.332 ± 0.063.

Regarding MSAKKSPEELKGIFEKWAAKEGDPNQLSKEELKLLLQTEFPSLLKGPSTLDELFEELDKNGDGEVSFEEFQVLVKKISQ [Y17W], the abundance fitness was -0.017 ± 0.082. Regarding MSAKKSPEELKGIFEKFAAKEGDPNQLSKEELKLLLQTEFPSLLKGPSTLDELFEELDKNGDGEVSFEEFQVLVKKISQ [Y17F], the abundance fitness is -0.008 ± 0.082.

Regarding MSAKKSPEELKGIFEKEAAKEGDPNQLSKEELKLLLQTEFPSLLKGPSTLDELFEELDKNGDGEVSFEEFQVLVKKISQ [Y17E], the abundance fitness is -0.425 ± 0.084.

As for MSAKKSPEELKGIFEKPAAKEGDPNQLSKEELKLLLQTEFPSLLKGPSTLDELFEELDKNGDGEVSFEEFQVLVKKISQ [Y17P], the abundance fitness was -1.25 ± 0.086. Next, MSAKKSPEELKGIFEKCAAKEGDPNQLSKEELKLLLQTEFPSLLKGPSTLDELFEELDKNGDGEVSFEEFQVLVKKISQ [Y17C]: -0.295 ± 0.081; MSAKKSPEELKGIFEKTAAKEGDPNQLSKEELKLLLQTEFPSLLKGPSTLDELFEELDKNGDGEVSFEEFQVLVKKISQ [Y17T]: -0.444 ± 0.077.

Take MSAKKSPEELKGIFEKVAAKEGDPNQLSKEELKLLLQTEFPSLLKGPSTLDELFEELDKNGDGEVSFEEFQVLVKKISQ [Y17V]: the abundance fitness is -0.345 ± 0.071.

With MSAKKSPEELKGIFEKQAAKEGDPNQLSKEELKLLLQTEFPSLLKGPSTLDELFEELDKNGDGEVSFEEFQVLVKKISQ [Y17Q], the abundance fitness is -0.379 ± 0.081.
